From patent publication US20230218637A1, “COMPOSITIONS AND METHODS FOR DIAGNOSING, PREVENTING, AND TREATING AMYOTROPHIC LATERAL SCLEROSIS IN PATIENTS WITH HYPOFUNCTIONAL ANTI-TRYPSIN ACTIVITY” (Motor Life Sciences, LLC, priority 2020, published 2023)

Assays:
[1] = test system: mutant SOD mice (SOD1G93A); assay: Ursolic acid treatment of ALS mouse model (grip test, rotarod); type: in vivo; conditions: ursolic acid 200 mg/kg daily over eight weeks
Experimental: In ALS mouse models, like mutant SOD mice (SOD1G93A)), ALS is diagnosed based on hanging wire grip test (where the latency of falling is measured in seconds), grip strength analysis, rotarod time trial test, where a decrease in time balanced on the rod correlates to disease positive mice. Weight is measured to determine hypotrophy of muscle mass over time. Low levels of serum serpinA1 proteins levels, serum protease inhibitor function, serum trypsin protein levels, and serum functional trypsin level correlates with ALS. Once the mice have been diagnosed with ALS, the mice are given daily treatments of ursolic acid (200 mg/kg) over the course of eight weeks. Levels of serum serpinA1 proteins, serum protease inhibitor function, serum trypsin protein, and serum functional trypsin are assessed over time monitoring for an increases. Grip test and rotarod times are assessed over time as a correlation for delay in disease progression.

alpha-1 anti-trypsin = conditions: cited from earlier work; for augmenting blood and lung alpha-1 anti-trypsin levels compared with Prolastin / safety compared with Prolastin: basis of approval
[2] = biological target: T1, alpha1-protease inhibitor (Homo sapiens, UniProt P01009); conditions: cited from earlier work
T1 construct: a human protein has been isolated from pooled human serum samples and lyophilized; tissue Baxter / Takeda (Aralast NP); host or cells: pooled human serum / plasma
T1 sequence (P01009 25-418): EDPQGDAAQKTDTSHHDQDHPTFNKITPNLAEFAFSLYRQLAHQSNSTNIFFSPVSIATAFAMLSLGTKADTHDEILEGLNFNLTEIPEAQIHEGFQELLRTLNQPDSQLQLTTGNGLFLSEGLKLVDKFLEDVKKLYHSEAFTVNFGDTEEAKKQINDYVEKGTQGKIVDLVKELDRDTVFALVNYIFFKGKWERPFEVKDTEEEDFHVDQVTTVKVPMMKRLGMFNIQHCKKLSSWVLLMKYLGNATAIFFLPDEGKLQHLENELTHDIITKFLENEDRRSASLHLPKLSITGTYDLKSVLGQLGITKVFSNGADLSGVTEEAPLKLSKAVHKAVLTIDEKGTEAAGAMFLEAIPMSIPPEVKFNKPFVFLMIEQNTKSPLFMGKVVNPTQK

Compound	performance (grip test, rotarod) versus non-treatment group [1]	augmenting blood and lung alpha-1 anti-trypsin levels compared with Prolastin (alpha-1 anti-trypsin)	safety compared with Prolastin (alpha-1 anti-trypsin)	specific activity [2]	safety record (alpha-1 anti-trypsin; marketed since 1988)
C[C@H]1[C@H](C)CC[C@]2(C(=O)O)CC[C@]3(C)C(=CC[C@@H]4[C@@]5(C)CC[C@H](O)C(C)(C)[C@@H]5CC[C@]43C)[C@H]12 [ursolic acid]	outperform the non-treatment group	–	–	–	–
Aralast NP: sterile, lyophilized preparation of human alpha-1 antitrypsin protein derived from large pools of human plasma	–	comparable to Prolastin	comparable to Prolastin	0.55 mg active alpha1-protease inhibitor/mg of total protein	–
Glassia: FDA approved alpha-1 antitrypsin deficiency drug from Kamada Ltd.	–	comparable to Prolastin	comparable to Prolastin	–	–
Prolastin: alpha-1 antitrypsin augmentation therapy product from Grifols, marketed since 1988	–	–	–	–	excellent safety record
Zemaira: FDA approved alpha-1 antitrypsin deficiency drug from CSL Behring	–	comparable to Prolastin	comparable to Prolastin	–	–
